Positions count from the first letter of the chain named.
B1: mAb 5A4.2 (antibody, human IgG2, lambda, V domains shown)
VH: QVQLVQSGAEVKKPGASVKVSCKASGYTFTDYYMNWVRQAPGQGLEWMGWINPNSGGTKYAQKFQGRVTMTRDTSIRTAYMELSRLRSDDTAVYYCSREYGGNSDWFDPWGQGTLVTVSS
VL: QSVLTQPPSVSGAPGQRVTISCTGSSSNIGAGYDVHWYQQLPGTAPKLLIYGNSNRPSGVPDRFSGSKSGTSASLAITGLQAEDEADYYCQSYDNRLSDSVVIGGGTKLTVQG
notes: fully human IgG2 lambda, Campaign 2
B2: mAb 5C1.1 (antibody, human IgG2, lambda, V domains shown)
VH: B1 VH with S97A
VL: B1 VL with T110A
notes: as for B1
B3: mAb 5F7.1 (antibody, human IgG2, lambda)
heavy: QVQLVQSGAEVKKPGASVKVPCKASGYTFTDYYINWVRQAPGQGLEWMGWINPNNGGTNYAQKFQGRVTMTRDTSISTAYMELRRLRSDDTAVYYCARERGGYEDWFDPWGQGTLVTVSSASTKGPSVFPLAPCSRSTSESTAALGCLVKDYFPEPVTVSWNSGALTSGVHTFPAVLQSSGLYSLSSVVTVPSSNFGTQTYTCNVDHKPSNTKVDKTVERKCCVECPPCPAPPVAGPSVFLFPPKPKDTLMISRTPEVTCVVVDVSHEDPEVQFNWYVDGVEVHNAKTKPREEQFNSTFRVVSVLTVVHQDWLNGKEYKCKVSNKGLPAPIEKTISKTKGQPREPQVYTLPPSREEMTKNQVSLTCLVKGFYPSDIAVEWESNGQPENNYKTTPPMLDSDGSFFLYSKLTVDKSRWQQGNVFSCSVMHEALHNHYTQKSLSLSPGK
light: QSVLTQPPSVSGAPGQRVTISCTGSSSNIGAGFDVHWYQQLPVTAPKLLIYGNRNRPSGVPARFSGSKSGTSASLAITGLQAEDEAVYYCQSYDSSLTVFGGGTKLTVLGQPKANPTVTLFPPSSEELQANKATLVCLISDFYPGAVTVAWKADGSPVKAGVETTKPSKQSNNKYAASSYLSLTPEQWKSHRSYSCQVTHEGSTVEKTVAPTECS
notes: as for B1
B4: mAb 2D2.1 (antibody, human IgG2, lambda, V domains shown)
VH: QVQLQQWGAGLLKPSETLSLTCAVYGGSFSGYYWSWIRQPPGKGLEWIGEIDHSGRINYNPALKSRLTISVDTSKNQFSLKLSSVTAADTAVYYCARAGSGGYEDWFDPWGQGTLVTVSS
VL: QSVLTQPPSVSGAPGQRVTISCTGSSSNIGAGYNVHWYQQFPRTDPKLLIYVYNIRPSGVPDRFSGSRSGTSASLAITGLQTEDEADYYCQSYDSSLSGVVFGGGTKLTVLG
notes: fully human IgG2 lambda, Campaign 1; also called mAb 2D.1
B5: mAb 2B7.1 (antibody, human IgG2, V domains shown)
VH: B4 VH with R56S, I57T
VL: B4 VL with A31T
notes: fully human, Campaign 1
B6: mAb 2C1.1 (antibody, human IgG2, lambda, V domains shown)
VH: B4 VH with R56S, I57T
VL: B4 VL
notes: fully human IgG2 lambda, Campaign 1; tested hybridoma-purified and recombinant; also called anti-hOrai1 mAb 2C1.1
B7: mAb 2B4.1 (antibody, human IgG2, lambda, V domains shown)
VH: QVQLVQSGAEVKKPGASVKVSCKASGYTFTDYYMHWVRQAPGQGLEWMGWINPNSGGTNYVQKFQDRVTMTRDTSITTAYMELTRLRSDDTAVYYCAREEGDYGMDVWGQGTTVTVSS
VL: QSVLTQPPSVSGAPGQRVTISCTGSNSNIGTGYDVHWYQKLPGTAPRLLIYSHFNRPSGVPDRFSGSTSGTSASLAITGLQAEDEADYYCQSYDSSLSGSVFGGGTKLTVLG

The binders below were run against T1, rat Orai1 (rat, UniProt Q5M848 1-304) (assay: FACS, 293EBNA transfectants with STIM1, thapsigargin).
T1 construct: co-expressed with rat STIM1; also called rOrai1
T1 sequence (Q5M848 whole entry): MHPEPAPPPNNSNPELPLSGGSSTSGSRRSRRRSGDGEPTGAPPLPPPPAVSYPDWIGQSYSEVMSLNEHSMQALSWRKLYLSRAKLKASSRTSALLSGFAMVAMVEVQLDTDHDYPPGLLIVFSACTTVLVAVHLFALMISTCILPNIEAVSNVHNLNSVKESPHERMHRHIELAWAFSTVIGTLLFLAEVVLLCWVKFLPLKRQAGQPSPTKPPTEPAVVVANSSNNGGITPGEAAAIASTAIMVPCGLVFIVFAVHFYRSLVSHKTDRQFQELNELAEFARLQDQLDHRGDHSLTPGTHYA
Description: (§1) FIG. 13A-B illustrates the results of FACS analysis showing binding to human Orai1 expressed on the surface of HEK-293-EBNA cells that were treated with 2 μM Thapsigargin. HEK-293-EBNA cells were transiently transfected with human Orai1 and human STIM1, mouse Orai1 and mouse STIM1, rat Orai1 and rat STIM1 and control empty vector. Transfected cells were stained first with recombinant monoclonal antibodies then counter-stained with a secondary phycoerythrin-labeled Gt anti-Hu IgG F(ab′)₂ or Gt anti-Mu IgG F(ab′)₂ antibody fragment, as appropriate, and visualized using FACS.
(§2) FACS binding analysis. Transfected 293EBNA cells transiently expressed hOrai1, human Orai2, or human Orai3 (results of binding comparison in FIG. 11A-B), or hOrai1(S218G) (results of binding comparison in FIG. 12A-B); or hOrai1 and hSTIM1; mOrai1 and mouse STIM1; or rat Orai1 and rat STIM1 (results of binding comparison in FIG. 13). The transfected cells were harvested at 48 hours post-transfection. Cells transfected with pcDNA3.1 were used as negative controls. Cells were washed once with ice-cold 1×PBS, resuspended in ice-cold FACS buffer (1×D-PBS+2% goat serum), and 2×10⁵ cells in […] were stained per antibody combination. All antibody incubation steps were performed on ice for 1 hour. […] Next, the unlabelled antibody was detected using goat F(ab′)₂ anti-mouse or anti-human IgG-phycoerythrin (IgG-PE), followed by a wash with 200 μL of ice-cold FACS buffer before flow cytometry analysis. Unstained cells and cells stained with detecting antibodies were used as negative controls. The values of relative level of fluorescence were calculated using FCS Express (De Novo Software) and mean values were calculated using log-transformed data (geometric mean). Purified mAbs were assessed by FACS assay for their ability to specifically bind human Orai1, Orai2 and Orai3 proteins expressed on HEK-293 cells.

Binder | binding result
B1 | no binding (tested: 1 µg)
B2 | no binding (tested: 1 µg)
B3 | no binding (tested: 1 µg)
B4 | no binding (tested: 1 µg)
B5 | no binding (tested: 1 µg)
B6 | no binding (tested: 1 µg)
B7 | no binding (tested: 1 µg)

What follows are binders tested against T2, mouse Orai1 (mouse, UniProt Q8BWG9 1-304) in the same assay as above.
T2 construct: co-expressed with mouse STIM1; also called mOrai1
T2 sequence (Q8BWG9 whole entry): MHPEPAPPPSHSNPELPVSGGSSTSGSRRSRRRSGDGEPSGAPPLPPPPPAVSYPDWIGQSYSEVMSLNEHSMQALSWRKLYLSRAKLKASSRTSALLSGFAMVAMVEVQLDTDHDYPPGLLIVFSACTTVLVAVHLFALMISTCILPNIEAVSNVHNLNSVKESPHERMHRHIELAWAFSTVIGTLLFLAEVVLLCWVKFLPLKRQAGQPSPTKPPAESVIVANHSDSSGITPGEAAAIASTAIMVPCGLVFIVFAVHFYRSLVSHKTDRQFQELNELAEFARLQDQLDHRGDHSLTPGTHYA
Description: as §1, §2

Binder | binding result
B1 | no binding (tested: 1 µg)
B2 | no binding (tested: 1 µg)
B3 | no binding (tested: 1 µg)
B4 | no binding (tested: 1 µg)
B5 | no binding (tested: 1 µg)
B6 | no binding (tested: 1 µg)
B7 | no binding (tested: 1 µg)

These binders were tested against T3, hOrai1-mOrai1 ECL2 chimeric protein (human/mouse chimera, UniProt Q96D31 1-301) (assay: FACS, 293EBNA transfectants).
T3 construct: human Orai1 with mouse ECL2; also called Ch
T3 sequence (Q96D31 other isoform, or with tags, fused parts or gaps mutant): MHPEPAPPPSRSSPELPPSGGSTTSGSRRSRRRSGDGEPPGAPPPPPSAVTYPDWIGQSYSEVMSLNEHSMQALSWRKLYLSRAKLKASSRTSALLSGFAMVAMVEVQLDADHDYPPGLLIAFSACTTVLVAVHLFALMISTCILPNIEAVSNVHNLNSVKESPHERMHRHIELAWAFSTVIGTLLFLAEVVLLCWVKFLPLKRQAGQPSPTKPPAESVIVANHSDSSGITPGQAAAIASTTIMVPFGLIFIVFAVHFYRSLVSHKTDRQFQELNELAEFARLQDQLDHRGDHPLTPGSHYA
From the text: FIG. 15A-B illustrates the results of FACS analysis showing binding to human Orai1 extracellular loop 2-mouse Orai1 mutant expressed on the surface of HEK-293-EBNA cells. HEK-293-EBNA cells were transiently transfected with mouse Orai1 mutant where human Orai1 extracellular loop 2 replaced the mouse Orai1 extracellular loop 2 and human Orai1 mutant where mouse Orai1 extracellular loop 2 replaced human extracellular loop 2. Transfected cells were stained first with recombinant monoclonal antibodies then counter-stained with a secondary phycoerythrin-labeled goat (“Gt”) anti-human (“Hu”) IgG F(ab′)₂ antibody fragment and visualized using FACS.
FACS binding analysis. Transfected 293EBNA cells transiently expressed hOrai1-mOrai1 ECL2 or mOrai1-hOrai1 ECL2 chimera. The transfected cells were harvested at 48 hours post-transfection. Cells transfected with pcDNA3.1 were used as negative controls. Cells were washed once with ice-cold 1×PBS, resuspended in ice-cold FACS buffer (1×D-PBS+2% goat serum), and 2×10⁵ cells in 100 μL were stained per antibody combination. All antibody incubation steps were performed on ice for 1 hour. […] Next, the unlabelled antibody was detected using goat F(ab′)₂ anti-mouse or anti-human IgG-phycoerythrin (IgG-PE), followed by a wash with 200 μL of ice-cold FACS buffer before flow cytometry analysis. Unstained cells and cells stained with detecting antibodies were used as negative controls. The values of relative level of fluorescence were calculated using FCS Express (De Novo Software) and mean values were calculated using log-transformed data (geometric mean). The results of the FACS analysis are shown in FIG. 15A-B, which supports the conclusion that the hOrai1 ECL2 domain is the region of hOrai1 where antibodies of the present invention bind.

Binder | binding result
B1 | no binding (tested: 1 µg)
B2 | no binding (tested: 1 µg)
B3 | no binding (tested: 1 µg)
B4 | no binding (tested: 1 µg)
B5 | no binding (tested: 1 µg)
B6 | no binding (tested: 1 µg)
B7 | no binding (tested: 1 µg)

What follows are binders tested against T4, hOrai1-mOrai1 ECL2 (…) protein (human/mouse chimera, UniProt Q96D31 1-301) (assay: FACS, 293EBNA, RFI-POC grade).
T4 construct: also called Ch
Set-up: concentration or dose not given beside the values
T4 sequence (Q96D31 other isoform, or with tags, fused parts or gaps): as the sequence (Q96D31 other isoform, or with tags, fused parts or gaps mutant) above, with S210R, K213S, P214K, A216P, E217A, V219G, I220A, V221A counted along it

Binder | percent of control (POC) of FACS Geo Mean [%]
B1 | 40 to 100
B2 | 40 to 100
B3 | 40 to 100
B4 | 40 to 100

These binders were tested against T5, hOrai1-mOrai1 ECL2 (…) protein (human/mouse chimera, UniProt Q96D31 1-301) (assay: FACS, 293EBNA, RFI-POC grade).
T5 construct: also called Ch
Set-up: concentration or dose not given beside the values
T5 sequence (Q96D31 other isoform, or with tags, fused parts or gaps): as the sequence (Q96D31 other isoform, or with tags, fused parts or gaps mutant) above, with R204K, A206P, S210R, K213S, P214K, A216P, E217A counted along it

Binder | percent of control (POC) of FACS Geo Mean [%]
B1 | 40 to 100
B2 | 40 to 100
B3 | 40 to 100
B4 | 40 to 100

What follows are binders tested against T6, mOrai1-hOrai1 ECL2 chimeric protein (human/mouse chimera, UniProt Q8BWG9 1-304 (mouse entry)) (assay: FACS, 293EBNA, RFI-POC grade).
T6 construct: mouse Orai1 with human ECL2; also called Ch
T6 sequence (Q8BWG9 other isoform, or with tags, fused parts or gaps mutant): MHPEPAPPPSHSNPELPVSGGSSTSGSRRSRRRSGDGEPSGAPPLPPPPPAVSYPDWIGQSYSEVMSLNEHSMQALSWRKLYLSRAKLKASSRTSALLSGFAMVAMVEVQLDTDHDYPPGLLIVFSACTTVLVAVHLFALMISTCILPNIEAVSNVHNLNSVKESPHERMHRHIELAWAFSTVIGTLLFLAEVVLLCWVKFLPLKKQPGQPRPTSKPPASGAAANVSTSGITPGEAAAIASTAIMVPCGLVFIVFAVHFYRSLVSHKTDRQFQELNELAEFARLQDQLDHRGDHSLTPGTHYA
Set-up: concentration or dose not given beside the values

Binder | percent of control (POC) of FACS Geo Mean [%]
B1 | 40 to 100
B2 | 40 to 100
B3 | 40 to 100
B4 | 40 to 100

The binders below were run against T7, hOrai1-mOrai1 ECL2 (GAA) protein (human/mouse chimera, UniProt Q96D31 1-301) (assay: FACS, 293EBNA).
T7 construct: also called Ch
T7 sequence (Q96D31 other isoform, or with tags, fused parts or gaps): as the sequence (Q96D31 other isoform, or with tags, fused parts or gaps mutant) above, with V219G, I220A, V221A counted along it
Set-up: concentration or dose not given beside the values
From the text: (§3) FIG. 17A-D illustrates the results of FACS analysis showing binding to the indicated mOrai1-hOrai1 ECL2 chimeric mutants expressed on the surface of HEK-293-EBNA cells. Transfected cells were stained first with recombinant monoclonal antibodies then counter-stained with a secondary phycoerythrin-labeled goat (“Gt”) anti-human (“Hu”) IgG F(ab′)₂ antibody fragment and visualized using FACS.
(§4) Representative results of FACS analysis of binding to the mutant hOrai1-mOrai1 ECL2 chimera described above by exemplary anti-hOrai1 antibodies of the present invention are shown in FIG. 17A-D, Table 10A and Table 10B below. Table 10A (Campaign 1) and Table 10B (Campaign 2) show the gain in binding ability of exemplary monoclonal antibodies to hOrai 1-mOrai 1 ECL2 chimera mutants as determined by FACS.

Binder | percent of control (POC) of FACS Geo Mean [%]
B1 | < 1
B2 | < 1
B3 | < 1
B4 | < 1

Each binder was assayed against T8, hOrai1-mOrai1 ECL2 (PASGAA) protein (human/mouse chimera, UniProt Q96D31 1-301) (assay: FACS, 293EBNA).
T8 construct: also called Ch
T8 sequence (Q96D31 other isoform, or with tags, fused parts or gaps): as the sequence (Q96D31 other isoform, or with tags, fused parts or gaps mutant) above, with A216P, E217A, V219G, I220A, V221A counted along it
Set-up: concentration or dose not given beside the values
From the text: as §3, §4

Binder | percent of control (POC) of FACS Geo Mean [%]
B1 | < 1
B2 | < 1
B3 | < 1
B4 | < 1

The binders below were run against T9, hOrai1-mOrai1 ECL2 (…) protein (human/mouse chimera, UniProt Q96D31 1-301) (assay: FACS, 293EBNA).
T9 construct: also called Ch
Set-up: concentration or dose not given beside the values
From the text: as §3, §4
T9 sequence (Q96D31 other isoform, or with tags, fused parts or gaps): as the sequence (Q96D31 other isoform, or with tags, fused parts or gaps mutant) above, with A216P, E217A, V219G, I220A, V221A, H224V, D226T counted along it

Binder | percent of control (POC) of FACS Geo Mean [%]
B1 | < 1
B2 | < 1
B3 | < 1
B4 | < 1

The binders below were run against T3, hOrai1-mOrai1 ECL2 chimeric protein (assay: FACS, 293EBNA).
Set-up: concentration or dose not given beside the values
From the text: as §3, §4

Binder | percent of control (POC) of FACS Geo Mean [%]
B1 | < 1
B2 | < 1
B3 | < 1
B4 | < 1

Each binder was assayed against T10, hOrai1-mOrai1 ECL2 (AANVST) protein (human/mouse chimera, UniProt Q96D31 1-301) (assay: FACS, 293EBNA).
T10 construct: also called Ch
T10 sequence (Q96D31 other isoform, or with tags, fused parts or gaps): as the sequence (Q96D31 other isoform, or with tags, fused parts or gaps mutant) above, with V221A, H224V, D226T counted along it
Set-up: concentration or dose not given beside the values
From the text: as §3, §4

Binder | percent of control (POC) of FACS Geo Mean [%]
B1 | < 1
B2 | < 1
B3 | < 1
B4 | < 1

Each binder was assayed against T11, hOrai1-mOrai1 ECL2 (VST) protein (human/mouse chimera, UniProt Q96D31 1-301) (assay: FACS, 293EBNA).
T11 construct: also called Ch
T11 sequence (Q96D31 other isoform, or with tags, fused parts or gaps): as the sequence (Q96D31 other isoform, or with tags, fused parts or gaps mutant) above, with H224V, D226T counted along it
Set-up: concentration or dose not given beside the values
From the text: as §3, §4

Binder | percent of control (POC) of FACS Geo Mean [%]
B1 | < 1
B2 | < 1
B3 | < 1
B4 | < 1
